Results taken from patent US20200199241A1 (Chugai, published 2020).
Numbering of substitutions follows the chain as printed. In names and notes the source's numbering stands.

B1: IgG1-F307 (antibody)
heavy: QVQLQESGPGLVKPSETLSLTCAVSGHSISHDHAWSWVRQPPGEGLEWIGFISYSGITNYNPSLQGRVTISRDNSKNTLYLQMNSLRAEDTAVYYCARSLARTTAMDYWGEGTLVTVSSASTKGPSVFPLAPSSKSTSGGTAALGCLVKDYFPEPVTVSWNSGALTSGVHTFPAVLQSSGLYSLSSVVTVPSSSLGTQTYICNVNHKPSNTKVDKKVEPKSCDKTHTCPPCPAPELLGGPKVFLFPPKPKDTLWISRTPEVTCVVVDVSHEDPEVKFNWYVDGVEVHNAKTKPREEQYNSTYRVVSVLTPLHQDWLNGKEYKCKVSNKALPAPIEKTISKAKGQPREPQVYTLPPSRDELTKNQVSLTCLVKGFYPSDIAVEWASNGQPENNYKTTPPVLDSDGSFFLYSKLTVDKSRWQQGNVFSCSVMHEALHYHYTQKSLSLSP
light: not shown
notes: EU numbering; copies: 2 + 2
B2: IgG1-F377 (antibody)
heavy: B1 heavy with T309P, P310V, A384E, M430Y
light: not shown
notes: EU numbering; copies: 2 + 2
B3: IgG1-F359 (antibody)
heavy: B1 heavy with K241S, W254M, P259V, T309Q, P310V, A384E, M430I
light: not shown
notes: EU numbering; copies: 2 + 2
B4: IgG1-F364 (antibody)
heavy: B1 heavy with K241S, W254M, P259V, T309Q, P310V, Q313A, N327G, A384E, M430L
light: not shown
notes: EU numbering; copies: 2 + 2
B5: IgG1-F367 (antibody)
heavy: B1 heavy with W254Y, E260H, D272F, T309Q, Q313A, A384E
light: not shown
notes: EU numbering; copies: 2 + 2
B6: IgG1-F322 (antibody)
heavy: B1 heavy with W254Y, D272F, T309P, A384E
light: not shown
notes: EU numbering; copies: 2 + 2
B7: IgG1-F374 (antibody)
heavy: B1 heavy with T258E, A384E, M430Y
light: not shown
notes: EU numbering; copies: 2 + 2
B8: IgG1-F344 (antibody)
heavy: B1 heavy with W254Y, A384E, M430L
light: not shown
notes: EU numbering; copies: 2 + 2
B9: IgG1-F323 (antibody)
heavy: B1 heavy with W254Y, T258E, D272F, A384E
light: not shown
notes: EU numbering; copies: 2 + 2
B10: IgG1-F326 (antibody)
heavy: B1 heavy with W254Y, D272F, T309Q, P310V, Q313A, A384E
light: not shown
notes: EU numbering; copies: 2 + 2
B11: IgG1-F373 (antibody)
heavy: B1 heavy with Q313A, A384E, M430Y
light: not shown
notes: EU numbering; copies: 2 + 2
B12: IgG1-F321 (antibody)
heavy: B1 heavy with W254Y, D272F, N327G, A384E
light: not shown
notes: EU numbering; copies: 2 + 2
B13: IgG1-F368 (antibody)
heavy: B1 heavy with W254Y, D272F, N327G, M430I
light: not shown
notes: EU numbering; copies: 2 + 2
B14: IgG1-F316 (antibody)
heavy: B1 heavy with W254Y, D272F, P310V, A384E, M430Y
light: not shown
notes: EU numbering; copies: 2 + 2
B15: IgG1-F356 (antibody)
heavy: B1 heavy with W254Y, D272F, L311E, A384E, P389E
light: not shown
notes: EU numbering; 'Y308P' as printed, probably V308P; copies: 2 + 2
B16: IgG1-F335 (antibody)
heavy: B1 heavy with W254Y, T258E, D272F, A384E, M430I
light: not shown
notes: EU numbering; copies: 2 + 2
B17: IgG1-F314 (antibody)
heavy: B1 heavy with K241S, W254Y, T258E, P310V, Q313A, D314A, A384E, M430Y
light: not shown
notes: EU numbering; copies: 2 + 2
B18: IgG1-F311 (antibody)
heavy: B1 heavy with A384E, M430F
light: not shown
notes: EU numbering; copies: 2 + 2
B19: IgG1-F387 (antibody)
heavy: B1 heavy with K241S, W254Y, L311D, A384E
light: not shown
notes: EU numbering; copies: 2 + 2
B20: IgG1-F388 (antibody)
heavy: B1 heavy with K241S, W254Y, L311A, A384E
light: not shown
notes: EU numbering; copies: 2 + 2
B21: IgG1-F324 (antibody)
heavy: B1 heavy with W254Y, D272F, T309Q, A384E
light: not shown
notes: EU numbering; copies: 2 + 2
B22: IgG1-F375 (antibody)
heavy: B1 heavy with N288E, A384E, M430Y
light: not shown
notes: EU numbering; copies: 2 + 2
B23: IgG1-F338 (antibody)
heavy: B1 heavy with W254Y, D272F, N288E, A384E, M430I
light: not shown
notes: EU numbering; copies: 2 + 2
B24: IgG1-F315 (antibody)
heavy: B1 heavy with W254Y, P310V, A384E, M430Y
light: not shown
notes: EU numbering; copies: 2 + 2
B25: IgG1-F353 (antibody)
heavy: B1 heavy with W254Y, P310V, L311R, A384E, M430L
light: not shown
notes: EU numbering; copies: 2 + 2
B26: IgG1-F320 (antibody)
heavy: B1 heavy with W254Y, N327G, M430I
light: not shown
notes: EU numbering; copies: 2 + 2
B27: IgG1-F376 (antibody)
heavy: B1 heavy with W254Y, T258E, D272F, N288E, A384E
light: not shown
notes: EU numbering; copies: 2 + 2
B28: IgG1-F333 (antibody)
heavy: B1 heavy with W254Y, D272F, T309Q, P310V, L311E, Q313A, A384E
light: not shown
notes: EU numbering; copies: 2 + 2
B29: IgG1-F339 (antibody)
heavy: B1 heavy with W254Y, D272F, L311E, A384E, M430I
light: not shown
notes: EU numbering; copies: 2 + 2
B30: IgG1-F318 (antibody)
heavy: B1 heavy with W254Y, A384E, M430I
light: not shown
notes: EU numbering; copies: 2 + 2
B31: IgG1-F363 (antibody)
heavy: B1 heavy with K241S, W254M, P259V, T309Q, P310V, Q313A, A384E, M430L
light: not shown
notes: EU numbering; copies: 2 + 2
B32: IgG1-F330 (antibody)
heavy: B1 heavy with W254Y, D272F, L311E, A384E
light: not shown
notes: EU numbering; copies: 2 + 2
B33: IgG1-F343 (antibody)
heavy: B1 heavy with W254Y, D272F, A384E, M430L
light: not shown
notes: EU numbering; copies: 2 + 2
B34: IgG1-F310 (antibody)
heavy: B1 heavy with M430I
light: not shown
notes: EU numbering; copies: 2 + 2
B35: IgG1-F354 (antibody)
heavy: B1 heavy with W254Y, T309Q, A384E, M430L
light: not shown
notes: EU numbering; copies: 2 + 2
B36: IgG1-F325 (antibody)
heavy: B1 heavy with W254Y, D272F, T309Q, Q313A, A384E
light: not shown
notes: EU numbering; copies: 2 + 2
B37: IgG1-F379 (antibody)
heavy: B1 heavy with T258E, Q313A, A384E, M430Y
light: not shown
notes: EU numbering; copies: 2 + 2
B38: IgG1-F352 (antibody)
heavy: B1 heavy with W254Y, P310V, L311P, A384E, M430L
light: not shown
notes: EU numbering; copies: 2 + 2
B39: IgG1-F328 (antibody)
heavy: B1 heavy with W254Y, D272F, A384E, M430I
light: not shown
notes: EU numbering; copies: 2 + 2
B40: IgG1-F312 (antibody)
heavy: B1 heavy with P310V, E382A, M430F
light: not shown
notes: EU numbering; copies: 2 + 2
B41: IgG1-F336 (antibody)
heavy: B1 heavy with W254Y, D272F, T309Q, Q313A, A384E, M430I
light: not shown
notes: EU numbering; copies: 2 + 2
B42: IgG1-F386 (antibody)
heavy: B1 heavy with K241S, W254Y, L311E, A384E
light: not shown
notes: EU numbering; copies: 2 + 2
B43: IgG1-F380 (antibody)
heavy: B1 heavy with T258E, N288E, A384E, M430Y
light: not shown
notes: EU numbering; copies: 2 + 2
B44: IgG1-F331 (antibody)
heavy: B1 heavy with W254Y, D272F, A384E, P389E
light: not shown
notes: EU numbering; copies: 2 + 2
B45: IgG1-F334 (antibody)
heavy: B1 heavy with W254Y, D272F, N327G, A384E, M430I
light: not shown
notes: EU numbering; copies: 2 + 2
B46: IgG1-F349 (antibody)
heavy: B1 heavy with W254Y, L311P, A384E, M430L
light: not shown
notes: EU numbering; copies: 2 + 2
B47: IgG1-F317 (antibody)
heavy: B1 heavy with W254Y, D272F, A384E, M430Y
light: not shown
notes: EU numbering; copies: 2 + 2
B48: IgG1-F308 (antibody)
heavy: B1 heavy with M430Y
light: not shown
notes: EU numbering; copies: 2 + 2
B49: IgG1-F337 (antibody)
heavy: B1 heavy with W254Y, D272F, T309Q, P310V, Q313A, A384E, M430I
light: not shown
notes: EU numbering; copies: 2 + 2
B50: IgG1-F372 (antibody)
heavy: B1 heavy with A384E, M430Y
light: not shown
notes: EU numbering; copies: 2 + 2
B51: IgG1-F381 (antibody)
heavy: B1 heavy with K241S, W254M, P259V, T309A, P310V, Q313A, A384E, M430L
light: not shown
notes: EU numbering; copies: 2 + 2
B52: IgG1-F390 (antibody)
heavy: B1 heavy with K241S, L311D, A384E, M430Y
light: not shown
notes: EU numbering; copies: 2 + 2
B53: IgG1-F350 (antibody)
heavy: B1 heavy with W254Y, L311R, A384E, M430L
light: not shown
notes: EU numbering; copies: 2 + 2
B54: IgG1-F358 (antibody)
heavy: B1 heavy with W254Y, T309Q, P310V, A384E
light: not shown
notes: EU numbering; copies: 2 + 2
B55: IgG1-F369 (antibody)
heavy: B1 heavy with K241S, W254Y, P259V, T309Q, P310V, A384E, M430I
light: not shown
notes: EU numbering; copies: 2 + 2
B56: IgG1-F389 (antibody)
heavy: B1 heavy with K241S, L311E, A384E, M430Y
light: not shown
notes: EU numbering; copies: 2 + 2
B57: IgG1-F365 (antibody)
heavy: B1 heavy with K241S, W254M, P259V, V307A, T309Q, P310V, A384E, M430L
light: not shown
notes: EU numbering; copies: 2 + 2
B58: IgG1-F360 (antibody)
heavy: B1 heavy with K241S, W254M, P259V, T309Q, P310V, A384E, M430V
light: not shown
notes: EU numbering; copies: 2 + 2
B59: IgG1-F313 (antibody)
heavy: B1 heavy with W254Y, T309P, P310V, A384E, M430Y
light: not shown
notes: EU numbering; copies: 2 + 2
B60: IgG1-F362 (antibody)
heavy: B1 heavy with K241S, W254M, P259V, T309Q, P310V, N327G, A384E, M430L
light: not shown
notes: EU numbering; copies: 2 + 2

target: T1, human FcRn (soluble human FcRn complexed with β2-microglobulin) (human, UniProt P61769 21-119, limits assumed); assay: SPR, pH 7.0;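 further: antibodies captured on a Protein L sensor chip with human FcRn injected as analyte, KD calculated from fitted association and dissociation rate constants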
T1 construct: also called hFcRn

| Kd [nM] | Binder |
| --- | --- |
| 36 | B1 |
| 130 | B2 |
| 420 | B3 |
| 35 | B4 |
| 15 | B5 |
| 92 | B6 |
| 12 | B7 |
| 30 | B8 |
| 27 | B9 |
| 75 | B10 |
| 11 | B11 |
| 32 | B12 |
| 20 | B13 |
| 700 | B14 |
| 34 | B15 |
| 15 | B16 |
| 320 | B17 |
| 28 | B18 |
| 150 | B19 |
| 70 | B20 |

| Kd [nM] | Binder |
| --- | --- |
| 28 | B21 |
| 5.5 | B22 |
| 7.7 | B23 |
| 680 | B24 |
| 1100 | B25 |
| 20 | B26 |
| 9.6 | B27 |
| 74 | B28 |
| 19 | B29 |
| 18 | B30 |
| 41 | B31 |
| 36 | B32 |
| 32 | B33 |
| 94 | B34 |
| 28 | B35 |
| 21 | B36 |
| 9 | B37 |
| 600 | B38 |
| 19 | B39 |
| 450 | B40 |

| Kd [nM] | Binder |
| --- | --- |
| 14 | B41 |
| 32 | B42 |
| 5.6 | B43 |
| 30 | B44 |
| 19 | B45 |
| 150 | B46 |
| 110 | B47 |
| 19 | B48 |
| 56 | B49 |
| 13 | B50 |
| 110 | B51 |
| 68 | B52 |
| 170 | B53 |
| 100 | B54 |
| 75 | B55 |
| 17 | B56 |
| 51 | B57 |
| 1300 | B58 |
| 650 | B59 |
| 54 | B60 |
